Reference: patent publication US20250011413A1 (MCMASTER UNIVERSITY, published 2025)

Key:
[1] = target: T1, PF4/heparin complex (human PF4 complexed with heparin) (human, UniProt P02776 32-101); assay: competition EIA, scFv 50 µg/mL; competitor HIT-positive sera antibodies, n=10
T1 construct: Multimeric complex of PF4 with heparin (not a protein); In the EIAs: PF4 captured on biotinylated heparin on streptavidin plates; In the SRA: platelets with 0.2 U/mL heparin; also called PF4 and heparin complexes
T1 sequence: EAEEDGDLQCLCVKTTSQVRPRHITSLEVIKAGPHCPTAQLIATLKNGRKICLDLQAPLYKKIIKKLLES

[2] = target: T1, PF4/heparin complex (human PF4 …); assay: as above; remark: listed apart in the source
Method: (§1) Inhibitory PF4/heparin IgG-specific Streptavidin Enzyme Immunoassay (EIA). The binding activity of wildtype and mutant scFv antibodies to PF4/heparin complexes was measured using an inhibitory PF4/heparin IgG-specific EIA with a streptavidin-biotin capture system. Before performing this protocol, 96-well NUNC Maxisorp plates (ThermoFisher) were coated with 10 μg/mL streptavidin for 24 h. Plates were then blocked with 3% bovine serum albumin (BSA) in phosphate buffered saline (PBS) for 2 h at room temperature. Plates were then coated with 1 U/mL biotinylated-heparin for 1 h followed by 30 μg/mL PF4 for 1 h. Increasing concentrations of wildtype or mutant scFv were added and incubated for 1 hr at room temperature. Without removing wildtype or scFv, HIT patient sera in a 1:50 dilution or full-length KKO (2 μg/mL) was then incubated for 1 h at room temperature. After washing, alkaline phosphatase-conjugated anti-human or anti-mouse IgG (Jackson Immuno Research Laboratories, Inc., West Grove, PA) was added at a 1:4000 dilution and incubated for 1 h temperature. For detection, 1 mg/mL p-nitrophenylphosphate (PNPP, Sigma-Aldrich) substrate dissolved in 1 mol/L diethanolamine (DEA) buffer (pH 9.6) was added. The optical density (OD) was measured at 2 min intervals for 30 min at 405 nm (OD₄₀₅ₙₘ) using a BioTek 800 TS plate reader (BioTek Instruments Inc., Winooski, VT) to determine if anti-PF4/heparin antibody binding was inhibited. Results were reported as a decrease in OD (absorbance at 405 nm) from baseline levels.
Inhibiting HIT-Positive (EIA+/SRA+) HIT-Negative (EIA+/SRA−) antibody binding: Sera (n=10) from confirmed HIT-positive patients (EIA-positive/SRA-positive) containing anti-PF4/heparin antibodies were used in a modified streptavidin-biotin based anti-PF4/heparin IgG EIA (streptavidin anti-PF4/hep EIA) with scFv at 50 μg/mL. On average, antibody binding to PF4/heparin was reduced in the presence of scFv.

[3] = target: T2, Human PF4 (CXCL4), biotinylated, without heparin (human, UniProt P02776 32-101, biotinylated with EZ-link-Sulfo-NHS-LC-Biotin (sites not given)); assay: BLI (Octet), biotinylated PF4 without heparin on streptavidin sensors, scFv 1 µg/mL, 1:1 model
T2 construct: Immobilised on streptavidin biosensors for BLI; also called PF4 alone; platelet factor 4
T2 sequence: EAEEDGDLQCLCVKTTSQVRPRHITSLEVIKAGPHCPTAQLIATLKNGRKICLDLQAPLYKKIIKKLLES
Method: (§2) The Octet-QK Red 96 (FortéBio, Menlo Park, CA) instrumentation was used to conduct all BLI experiments. A 96-well microtiter plate (black, flat-bottom) was used to hold 200 μL per well of either sample or buffer. Pre-coated streptavidin biosensor tips (FortéBio) were hydrated in phosphate buffered saline (PBS) containing 1% bovine serum albumin (BSA, Sigma-Aldrich) before performing all kinetic assays. Each step was performed at an operating temperature of 23° C. with agitation at 1000 rpm. Streptavidin tips were first equilibrated in PBS+1% BSA to establish a baseline. […] The PF4-coated tips were then dipped into PBS+1% BSA for 13 minutes to re-establish a baseline. Tips were then incubated in an analyte solution containing half-fold dilutions of wildtype scFv (4.0, 2.0, 1.0, 0.5, 0.25 μg/mL in PBS+1% BSA) for 10 minutes to measure association. For mutant scFv association, tips were incubated in an analyte solution containing 200 μL of each mutant and wildtype scFv at a final concentration of 1 μg/mL in PBS+1% BSA. Antibody dissociation steps were performed by dipping sensors in wells containing PBS+1% BSA for 56 minutes. The following negative controls included in these kinetic experiments were also measured: 200 μL of buffer to replace both the antigen and scFv and 200 μL buffer replacing scFv only. Each experiment was performed with PF4 or with PF4/heparin as the immobilized antigen.
(§3) BLI experiments were performed to evaluate binding responses and affinities of wildtype and mutant scFv. Biotinylated PF4 alone or complexed with heparin was immobilized on streptavidin biosensors and used to capture wildtype scFv. Half-fold serial dilutions of wildtype scFv ranging from 0.25 μg/mL to 4 μg/mL were used to determine the optimal concentrations for future experiments PF4 (PF4 FIG. 3; PF4/heparin FIG. 4).

[4] = target: T1, PF4/heparin complex (human PF4 …); assay: BLI (Octet), biotinylated PF4/heparin on streptavidin sensors, scFv 1 µg/mL
Method: as §2, §3

[5] = target: T1, PF4/heparin complex (human PF4 …); assay: cell-based or functional assay
[6] = target: T2, Human PF4 (CXCL4), biotinylated, …; assay: BLI (Octet), biotinylated PF4 without heparin on streptavidin sensors, scFv 1 µg/mL
Method: as §2, §3

[7] = target: T1, PF4/heparin complex (human PF4 …); assay: competition EIA, scFv 50 µg/mL; competitor HIT-negative sera antibodies, n=10
[8] = target: T1, PF4/heparin complex (human PF4 …); assay: as above; remark: listed apart in the source
Method: as §1
Sera (n=10) from confirmed HIT-negative patients (EIA-positive/SRA-negative) containing anti-PF4/heparin antibodies were then used in the same EIA with scFv constructs to determine if antibody binding was decreased in this cohort (Table 5).

[9] = target: T2, Human PF4 (CXCL4), biotinylated, …; assay: BLI (Octet), biotinylated PF4 without heparin on streptavidin sensors, scFv at 1 µg/mL, 1:1 model, mean ± s.d. [cont.) b]
Method: (§4) BLI experiments were performed using wildtype scFv, mutant B, mutant C, mutant D, mutant E, and mutant F at 1 μg/mL. Binding was measured against immobilized biotinylated PF4 on streptavidin biosensors. b) Table showing kinetic data of wildtype and mutant scFv, including binding responses and association and dissociation rates. All data was analyzed based on a 1:1 homogenous ligand binding model using Octet® User Software version 3.1.
as §2
(§5) BLI experiments were performed to evaluate binding responses and affinities of wildtype and mutant scFv. Biotinylated PF4 alone or complexed with heparin was immobilized on streptavidin biosensors and used to capture wildtype scFv.

[10] = target: T1, PF4/heparin complex (human PF4 …); assay: BLI (Octet), biotinylated PF4/heparin on streptavidin sensors, scFv at 1 µg/mL, 1:1 model, mean ± s.d.
Method: as §4, with “PF4/heparin complexes” for “PF4”, “Octet®)” for “Octet®”
as §2, §5

[11] = target: T1, PF4/heparin complex (human PF4 …); assay: BLI (Octet), biotinylated PF4/heparin on streptavidin sensors, scFv 1 µg/mL, 1:1 model
Method: as §2, §3

mean % inhibition of serum antibody binding [1]: 50.6% | mean OD405nm of bound serum IgG (+ scFv) [2]: 0.799 OD405nm | Kd [3]: 1660 nM | average binding response (wavelength shift) [4]: 0.159 nm | fold higher binding response than wildtype scFv [4]: 2 fold | % inhibition of 14C-serotonin release (SRA), HIT-Positive Patient #1 serum, scFv 50 µg/mL [5]: 14.4% | % inhibition of 14C-serotonin release (SRA), HIT-Positive Patient #1 serum, scFv 75 µg/mL [5]: 22.2% | % inhibition of 14C-serotonin release (SRA), HIT-Positive Patient #2 serum, scFv 50 µg/mL [5]: 15.4% | % inhibition of 14C-serotonin release (SRA), HIT-Positive Patient #2 serum, scFv 75 µg/mL [5]: 21.8% | % inhibition of 14C-serotonin release (SRA), HIT-Positive Patient #3 serum, scFv 50 µg/mL [5]: -1.2% | % inhibition of 14C-serotonin release (SRA), HIT-Positive Patient #3 serum, scFv 75 µg/mL [5]: 9.6% | % inhibition of 14C-serotonin release (SRA), HIT-Positive Patient #4 serum, scFv 50 µg/mL [5]: 3.3% | % inhibition of 14C-serotonin release (SRA), HIT-Positive Patient #4 serum, scFv 75 µg/mL [5]: 5.6% | % inhibition of 14C-serotonin release (SRA), HIT-Positive Patient #5 serum, scFv 50 µg/mL [5]: 22.2% | % inhibition of 14C-serotonin release (SRA), HIT-Positive Patient #5 serum, scFv 75 µg/mL [5]: 6.9% | average binding response (wavelength shift) [6]: 0.0399 nm | mean % inhibition of serum antibody binding [7]: -42.5% | mean OD405nm of bound serum IgG (+ scFv) [8]: 1.24 OD405nm | koff [9]: 0.000215 s⁻¹ | kon [9]: 16900 M⁻¹ s⁻¹ | koff [10]: 0.000477 s⁻¹ | kon [10]: 85800 M⁻¹ s⁻¹ | Kd [11]: 3.81 nM | fold increased affinity against wildtype scFv [11]: 10 fold
B1: Mutant C scFv, scFv(S50N, Y53H) (scFv)
scFv: DIQMIQSQKFMSTSVGDRVTVTCKASQNVGTNVAWYQQKPGQSPNALIYNASHRYSGVPDRFTGSGSGTDFTLTITNVQSEDLADYFCQQYNSYPLTFGTGTKLDLKGGGGSGGGGSGGGGSVQLQQSGAELVKPGASVKLSCKASGYTFTNYFIYWVKQRPGQGLEWIGEINPRNGDTDFNEKFESRATLTVDKSSSTAYMQLSSLTSEDSAIYYCTRSPYGNNYGFTYWGQGTLVTVSA
notes: VL-linker-VH; histidine-tagged, from E. coli BL21; also called Mut C; not shown: histidine tag from the pADL-22c vector
